Biological target: T1, Strep-RBBP7 (UniProt Q16576 1-425)
T1 construct: called full-length in the results; also called full-length RBB7; source: HEK293FT, transiently transfected, purified (Strep-Tactin Sepharose, eluted with desthiobiotin)
Experiment: pull-down; GST or GST-BCORL(S1474-G1644) (0.1 μM) on Glutathione Sepharose 4B with Strep-RBBP7 (0.1 μM), lysis buffer with 0.1% Triton X-100, overnight at 4°C; stain-free SDS-PAGE
Conditions: both partners purified

T1 sequence (Q16576 whole entry): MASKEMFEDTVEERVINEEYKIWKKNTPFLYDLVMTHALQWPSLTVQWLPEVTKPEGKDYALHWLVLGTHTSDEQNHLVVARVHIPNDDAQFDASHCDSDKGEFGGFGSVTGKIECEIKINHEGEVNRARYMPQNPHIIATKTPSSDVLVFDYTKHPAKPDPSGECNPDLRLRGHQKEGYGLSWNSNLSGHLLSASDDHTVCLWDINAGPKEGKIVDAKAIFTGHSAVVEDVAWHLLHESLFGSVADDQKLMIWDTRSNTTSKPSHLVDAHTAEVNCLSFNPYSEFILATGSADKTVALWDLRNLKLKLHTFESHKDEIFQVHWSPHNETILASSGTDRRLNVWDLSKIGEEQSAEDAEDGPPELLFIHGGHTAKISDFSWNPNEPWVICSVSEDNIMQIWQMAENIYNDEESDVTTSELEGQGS

- binding result: binds
B1: GST-BCORL(S1474-G1644) (domain or fragment, UniProt Q5H9F3 1474-1644, looked up)
chain: SESPTARQIPPEARRLIVNKNAGETLLQRAARLGYKDVVLYCLQKDSEDVNHRDNAGYTALHEACSRGWTDILNILLEHGANVNCSAQDGTRPVHDAVVNDNLETIWLLLSYGADPTLATYSGQTAMKLASSDTMKRFLSDHLSDLQGRAEGDPGVSWDFYSSSVLEEKDG
notes: also called GST-BCORL fragment; source: E. coli BL21, purified (Glutathione Sepharose 4B, eluted with glutathione, dialysed); not shown: GST, N-terminal, kept
